Measured values reported in publication PMC5648754, “CryoEM structure of Saccharomyces cerevisiae U1 snRNP offers insight into alternative splicing” (Nature Communications, 2017).

T1: yeast Snu71 (S. cerevisiae, UniProt P53207 1-620)
T1 construct: Snu71 of S. cerevisiae U1 snRNP; not modelled in the structure; source: endogenous, S. cerevisiae; co-purified in U1 snRNP through the TAP tag on U1A
T1 sequence (looked up): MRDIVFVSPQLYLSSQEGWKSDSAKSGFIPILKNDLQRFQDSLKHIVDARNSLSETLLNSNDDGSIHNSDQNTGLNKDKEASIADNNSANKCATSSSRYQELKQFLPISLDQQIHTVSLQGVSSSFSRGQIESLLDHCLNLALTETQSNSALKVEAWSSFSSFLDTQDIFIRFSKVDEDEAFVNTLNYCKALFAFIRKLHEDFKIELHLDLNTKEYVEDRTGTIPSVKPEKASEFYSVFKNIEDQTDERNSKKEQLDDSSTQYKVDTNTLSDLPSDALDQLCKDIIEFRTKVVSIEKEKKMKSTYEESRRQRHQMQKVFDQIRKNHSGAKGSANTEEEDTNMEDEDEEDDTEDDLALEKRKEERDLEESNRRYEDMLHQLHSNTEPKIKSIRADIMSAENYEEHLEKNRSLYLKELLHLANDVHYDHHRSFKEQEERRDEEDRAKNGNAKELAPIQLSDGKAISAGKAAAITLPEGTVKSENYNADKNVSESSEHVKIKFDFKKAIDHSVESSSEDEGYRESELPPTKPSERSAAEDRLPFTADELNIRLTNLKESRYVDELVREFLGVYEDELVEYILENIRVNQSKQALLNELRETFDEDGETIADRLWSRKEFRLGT

T2: yeast Prp39 (S. cerevisiae, UniProt P39682 1-629)
T2 construct: Prp39 of S. cerevisiae, 629 residues; C-terminal TPR domain 326-552 and C-terminal region 561-627 built, 43-285 docked as homology model; source: endogenous, S. cerevisiae; co-purified in U1 snRNP through the TAP tag on U1A
T2 sequence (looked up): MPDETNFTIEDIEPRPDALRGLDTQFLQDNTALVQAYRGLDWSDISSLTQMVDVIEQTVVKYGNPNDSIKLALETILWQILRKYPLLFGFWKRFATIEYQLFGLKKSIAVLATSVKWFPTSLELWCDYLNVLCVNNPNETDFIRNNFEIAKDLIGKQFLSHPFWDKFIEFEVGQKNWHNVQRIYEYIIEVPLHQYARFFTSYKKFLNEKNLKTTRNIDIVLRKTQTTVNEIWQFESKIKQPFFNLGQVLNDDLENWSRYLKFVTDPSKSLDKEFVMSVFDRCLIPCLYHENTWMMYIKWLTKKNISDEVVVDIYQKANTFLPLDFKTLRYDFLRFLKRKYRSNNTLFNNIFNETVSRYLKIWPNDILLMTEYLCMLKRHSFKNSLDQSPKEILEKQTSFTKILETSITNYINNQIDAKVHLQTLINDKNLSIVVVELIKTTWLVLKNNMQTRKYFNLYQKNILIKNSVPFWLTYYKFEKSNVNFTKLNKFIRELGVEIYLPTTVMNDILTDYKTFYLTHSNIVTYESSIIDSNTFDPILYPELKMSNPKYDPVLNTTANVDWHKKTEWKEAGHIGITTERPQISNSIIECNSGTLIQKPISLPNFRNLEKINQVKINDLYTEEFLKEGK

T3: yeast U1-70K (S. cerevisiae, UniProt Q00916 1-300)
T3 construct: U1-70K of S. cerevisiae U1 snRNP; residues 3-91 built, 94-188 (RRM) docked as homology model; source: endogenous, S. cerevisiae; co-purified in U1 snRNP through the TAP tag on U1A
T3 sequence (looked up): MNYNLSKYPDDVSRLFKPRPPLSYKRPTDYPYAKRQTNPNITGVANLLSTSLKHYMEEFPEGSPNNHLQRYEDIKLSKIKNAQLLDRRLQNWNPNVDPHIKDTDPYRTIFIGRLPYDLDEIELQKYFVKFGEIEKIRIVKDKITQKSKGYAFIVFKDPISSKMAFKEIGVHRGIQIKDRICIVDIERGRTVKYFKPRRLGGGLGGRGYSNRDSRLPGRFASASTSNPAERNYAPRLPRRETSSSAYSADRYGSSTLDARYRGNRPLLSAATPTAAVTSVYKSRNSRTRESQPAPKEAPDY

B1: yeast Prp42 (natural protein, S. cerevisiae, UniProt Q03776 1-544, looked up)
chain: MDKYTALIHDENFSTLTLNVSRYPKSLAYWEKLLNYIVKASAPICKSTEPQLLKLIRCTYSSMLNEFPYLENYYIDFALLEYKLGNVSMSHKIFQRGLQAFNQRSLLLWTSYLKFCNNVISHQKQLFKKYETAEEYVGLHFFSGEFWDLYLEQISSRCTSSKKYWNVLRKILEIPLHSFSKFYALWLQRIDDIMDLKQLSQLTSKDELLKKLKIDINYSGRKGPYLQDAKKKLKKITKEMYMVVQYQVLEIYSIFESKIYINYYTSPETLVSSDEIETWIKYLDYTITLQTDSLTHLNFQRALLPLAHYDLVWIKYSKWLINSKNDLLGAKNVLLMGLKFSLKKTEIIKLLYSVICKLNEYVLLRNLLEKIESSYSDNVENVDDFEIFWDYLQFKTFCQNSLYSSRYSDSQSNGLLNKELFDKVWKRLSCKEKKSGQEILLNNLVQFYSKDTVEFVEKNIFQKIIEFGWEYYLQNGMFWNCYCRLIYFDTSRSYLDKRQYIVRKIWPQIDKKFAQSVLPSLTEFCESYFPEEMDTLEEMFTEEP
notes: Prp42 of S. cerevisiae, 544 residues; residues 2-540 modelled; source: endogenous, S. cerevisiae; co-purified in U1 snRNP through the TAP tag on U1A
B2: yeast Nam8 (natural protein, S. cerevisiae, UniProt Q00539 1-523, looked up)
chain: MSYKQTTYYPSRGNLVRNDSSPYTNTISSETNNSSTSVLSLQGASNVSLGTTGNQLYMGDLDPTWDKNTVRQIWASLGEANINVRMMWNNTLNNGSRSSMGPKNNQGYCFVDFPSSTHAANALLKNGMLIPNFPNKKLKLNWATSSYSNSNNSLNNVKSGNNCSIFVGDLAPNVTESQLFELFINRYASTSHAKIVHDQVTGMSKGYGFVKFTNSDEQQLALSEMQGVFLNGRAIKVGPTSGQQQHVSGNNDYNRSSSSLNNENVDSRFLSKGQSFLSNGNNNMGFKRNHMSQFIYPVQQQPSLNHFTDPNNTTVFIGGLSSLVTEDELRAYFQPFGTIVYVKIPVGKCCGFVQYVDRLSAEAAIAGMQGFPIANSRVRLSWGRSAKQTALLQQAMLSNSLQVQQQQPGLQQPNYGYIPSSTCEAPVLPDNNVSSTMLPGCQILNYSNPYANANGLGSNNFSFYSNNNATNTQATSLLADTSSMDLSGTGGQQVIMQGSEAVVNSTNAMLNRLEQGSNGFMFA
notes: Nam8 of S. cerevisiae, 523 residues; inter-RRM linker 289-302 and RRM3 303-383 and C-terminal tail modelled; source: endogenous, S. cerevisiae; co-purified in U1 snRNP through the TAP tag on U1A

Tests used:
Conditions in all cases: both partners purified
[1] = target: T1, yeast Snu71; test: cross-linking; purified yeast U1 snRNP cross-linked with 100 uM BS3, 30 min, room temperature; trypsin digest, mass spectrometry
[2] = target: T2, yeast Prp39; test: cryo-EM structure; natively purified yeast U1 snRNP, 3.6 Å overall resolution
[3] = target: B1; test: as above
[4] = target: B2; test: as above
[5] = target: T3, yeast U1-70K; test: as above

Row | binding result [1] | binding result [2] | binding result [3] | binding result [4] | binding result [5] | Binder
1 | binds | binds |  |  |  | B1
2 | binds |  | binds | binds |  | yeast Snu56 (natural protein, S. cerevisiae, UniProt Q03782 1-492, looked up, Snu56 of S. cerevisiae, 492 residues; N-terminal domain 47-254 and long helix 255-303 modelled; source: endogenous, S. cerevisiae; co-purified in U1 snRNP through the TAP tag on U1A) MRPRRRGLAYHHTKPKGQLSQGHYPTTSNDGQRRKVGNSEAFQSFDIWKNLDRIRSTKKNAGQFIKGSLLILPMRTEDKQQFDECMDELHKYISKDILRCYPQKEQKDEGMLFYIVLKDFNILDSCFVLSVLLAFQKRLWMAPSEKSYFRVPKNINLTGSFYLPKNIETGRGHIITSYRREQPSSSIVEVGFNVVPDFQQFQVKACHVSKFMNELSNFFSQVEFGKCEANVINYFKREYNRTYSQISLALYELPLIGDGLFDIKSYISKTRPIIETSKAQMIKHISEMKAYNEISGLQGDQFPRQQRPLSNSPSSNSISSSQTIEAGATSYQTQPQRHAVNKPSNVLNSSNRHSGPKTFEDGRYSEGNKPGFMTQDEIKQHCIGTIKASMDAVKKKSSYQILKTYVRCPRQNYIDIVYQNLNDLRSKTNCNIVVLNLNNLHESQMWLESLNTTNYTIFAQAPHPSTIRVISIGGVGEYIVKALELILNILEH
3 | binds |  |  |  |  | yeast Prp40 (natural protein, S. cerevisiae, UniProt P33203 1-583, looked up, Prp40 of S. cerevisiae U1 snRNP; not modelled in the structure; source: endogenous, S. cerevisiae; co-purified in U1 snRNP through the TAP tag on U1A) MSIWKEAKDASGRIYYYNTLTKKSTWEKPKELISQEELLLRENGWKAAKTADGKVYYYNPTTRETSWTIPAFEKKVEPIAEQKHDTVSHAQVNGNRIALTAGEKQEPGRTINEEESQYANNSKLLNVRRRTKEEAEKEFITMLKENQVDSTWSFSRIISELGTRDPRYWMVDDDPLWKKEMFEKYLSNRSADQLLKEHNETSKFKEAFQKMLQNNSHIKYYTRWPTAKRLIADEPIYKHSVVNEKTKRQTFQDYIDTLIDTQKESKKKLKTQALKELREYLNGIITTSSSETFITWQQLLNHYVFDKSKRYMANRHFKVLTHEDVLNEYLKIVNTIENDLQNKLNELRLRNYTRDRIARDNFKSLLREVPIKIKANTRWSDIYPHIKSDPRFLHMLGRNGSSCLDLFLDFVDEQRMYIFAQRSIAQQTLIDQNFEWNDADSDEITKQNIEKVLENDRKFDKVDKEDISLIVDGLIKQRNEKIQQKLQNERRILEQKKHYFWLLLQRTYTKTGKPKPSTWDLASKELGESLEYKALGDEDNIRRQIFEDFKPESSAPTAESATANLTLTASKKRHLTPAVELDY
4 |  | binds | binds |  |  | B2
5 |  |  | binds |  |  | yeast SmG (natural protein, S. cerevisiae, UniProt P40204 1-77, looked up, SmG of S. cerevisiae, member of the Sm ring of U1 snRNP; source: endogenous, S. cerevisiae; co-purified in U1 snRNP through the TAP tag on U1A) MVSTPELKKYMDKKILLNINGSRKVAGILRGYDIFLNVVLDDAMEINGEDPANNHQLGLQTVIRGNSIISLEALDAI
6 |  |  | binds | binds | binds | yeast U1C (natural protein, S. cerevisiae, UniProt Q05900 1-231, looked up, U1C of S. cerevisiae U1 snRNP, 231 residues; NTD residues 1-48; residues 3-47 and 48-195 modelled; also called Yhc1; source: endogenous, S. cerevisiae; co-purified in U1 snRNP through the TAP tag on U1A) MTRYYCEYCHSYLTHDTLSVRKSHLVGKNHLRITADYYRNKARDIINKHNHKRRHIGKRGRKERENSSQNETLKVTCLSNKEKRHIMHVKKMNQKELAQTSIDTLKLLYDGSPGYSKVFVDANRFDIGDLVKASKLPQRANEKSAHHSFKQTSRSRDETCESNPFPRLNNPKKLEPPKILSQWSNTIPKTSIFYSVDILQTTIKESKKRMHSDGIRKPSSANGYKRRRYGN
